Literature values in publication PMC3566329.

How the values were obtained:
[1] = target: Methylamine dehydrogenase (quinone) (Paracoccus denitrificans) (UniProt P22619); experiment: single turnover kinetics
[2] = target: preMADH (Paracoccus denitrificans) (UniProt P22619)

Substance | Kd [1] [µM] | Kd [2] [µM]
MauG (di-ferrous) (from UniProt Q51658) | 10.1 | 
MauG (from UniProt Q51658) |  | < 1.5
